Results on four sequences are retold here after US20190134153A1, “IMMUNOMODULATORY EFFECT OF INHALED KINASE INHIBITOR PEPTIDES IN LUNG” (MOERAE MATRIX, INC., priority 2017, published 2019).

What all share (test): Kinase Profiling Assay
Common to all, as to format: biochemical
Conditions in all cases: 100 μM

For assay [1], the target named is T1, ASK1(h) (Homo sapiens, UniProt Q99683).
T1 sequence (Q99683 1-1374): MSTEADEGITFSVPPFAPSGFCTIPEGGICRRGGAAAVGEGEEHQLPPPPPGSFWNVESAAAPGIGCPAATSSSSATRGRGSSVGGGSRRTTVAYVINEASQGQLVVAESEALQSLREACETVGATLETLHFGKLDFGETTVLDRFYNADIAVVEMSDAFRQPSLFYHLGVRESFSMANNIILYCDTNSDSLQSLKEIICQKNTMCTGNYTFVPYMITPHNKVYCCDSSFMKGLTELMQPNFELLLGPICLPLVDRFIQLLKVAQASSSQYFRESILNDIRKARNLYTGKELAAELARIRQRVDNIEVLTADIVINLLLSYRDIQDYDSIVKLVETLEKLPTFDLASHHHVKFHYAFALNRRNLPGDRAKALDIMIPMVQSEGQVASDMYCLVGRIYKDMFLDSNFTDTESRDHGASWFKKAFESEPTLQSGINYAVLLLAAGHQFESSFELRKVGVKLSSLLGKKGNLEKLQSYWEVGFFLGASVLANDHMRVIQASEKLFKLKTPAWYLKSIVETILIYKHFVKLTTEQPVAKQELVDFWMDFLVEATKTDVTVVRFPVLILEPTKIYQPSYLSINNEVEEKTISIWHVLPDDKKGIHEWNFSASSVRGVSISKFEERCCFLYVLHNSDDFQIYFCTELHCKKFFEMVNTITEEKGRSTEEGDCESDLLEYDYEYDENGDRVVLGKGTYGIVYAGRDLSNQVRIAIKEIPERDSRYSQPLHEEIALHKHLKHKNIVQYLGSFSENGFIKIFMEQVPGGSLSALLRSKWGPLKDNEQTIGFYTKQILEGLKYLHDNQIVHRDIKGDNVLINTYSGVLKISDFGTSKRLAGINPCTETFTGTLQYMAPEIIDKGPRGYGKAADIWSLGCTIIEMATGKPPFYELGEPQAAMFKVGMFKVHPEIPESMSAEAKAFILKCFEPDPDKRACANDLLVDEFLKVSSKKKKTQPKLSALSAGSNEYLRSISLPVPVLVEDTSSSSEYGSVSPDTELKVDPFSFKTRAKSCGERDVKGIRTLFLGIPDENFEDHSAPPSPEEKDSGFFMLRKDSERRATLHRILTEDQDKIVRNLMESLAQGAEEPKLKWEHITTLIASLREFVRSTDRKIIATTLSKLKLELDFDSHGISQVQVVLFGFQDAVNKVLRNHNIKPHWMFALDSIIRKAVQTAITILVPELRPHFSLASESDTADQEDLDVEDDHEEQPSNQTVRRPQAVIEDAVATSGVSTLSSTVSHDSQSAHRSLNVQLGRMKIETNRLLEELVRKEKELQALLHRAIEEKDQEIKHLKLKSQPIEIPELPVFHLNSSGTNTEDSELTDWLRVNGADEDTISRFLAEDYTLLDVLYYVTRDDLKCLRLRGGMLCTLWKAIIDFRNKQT

Assay [2] deals with DAPK1(h) (Homo sapiens, UniProt P53355).
Chain of DAPK1(h) (P53355 whole entry): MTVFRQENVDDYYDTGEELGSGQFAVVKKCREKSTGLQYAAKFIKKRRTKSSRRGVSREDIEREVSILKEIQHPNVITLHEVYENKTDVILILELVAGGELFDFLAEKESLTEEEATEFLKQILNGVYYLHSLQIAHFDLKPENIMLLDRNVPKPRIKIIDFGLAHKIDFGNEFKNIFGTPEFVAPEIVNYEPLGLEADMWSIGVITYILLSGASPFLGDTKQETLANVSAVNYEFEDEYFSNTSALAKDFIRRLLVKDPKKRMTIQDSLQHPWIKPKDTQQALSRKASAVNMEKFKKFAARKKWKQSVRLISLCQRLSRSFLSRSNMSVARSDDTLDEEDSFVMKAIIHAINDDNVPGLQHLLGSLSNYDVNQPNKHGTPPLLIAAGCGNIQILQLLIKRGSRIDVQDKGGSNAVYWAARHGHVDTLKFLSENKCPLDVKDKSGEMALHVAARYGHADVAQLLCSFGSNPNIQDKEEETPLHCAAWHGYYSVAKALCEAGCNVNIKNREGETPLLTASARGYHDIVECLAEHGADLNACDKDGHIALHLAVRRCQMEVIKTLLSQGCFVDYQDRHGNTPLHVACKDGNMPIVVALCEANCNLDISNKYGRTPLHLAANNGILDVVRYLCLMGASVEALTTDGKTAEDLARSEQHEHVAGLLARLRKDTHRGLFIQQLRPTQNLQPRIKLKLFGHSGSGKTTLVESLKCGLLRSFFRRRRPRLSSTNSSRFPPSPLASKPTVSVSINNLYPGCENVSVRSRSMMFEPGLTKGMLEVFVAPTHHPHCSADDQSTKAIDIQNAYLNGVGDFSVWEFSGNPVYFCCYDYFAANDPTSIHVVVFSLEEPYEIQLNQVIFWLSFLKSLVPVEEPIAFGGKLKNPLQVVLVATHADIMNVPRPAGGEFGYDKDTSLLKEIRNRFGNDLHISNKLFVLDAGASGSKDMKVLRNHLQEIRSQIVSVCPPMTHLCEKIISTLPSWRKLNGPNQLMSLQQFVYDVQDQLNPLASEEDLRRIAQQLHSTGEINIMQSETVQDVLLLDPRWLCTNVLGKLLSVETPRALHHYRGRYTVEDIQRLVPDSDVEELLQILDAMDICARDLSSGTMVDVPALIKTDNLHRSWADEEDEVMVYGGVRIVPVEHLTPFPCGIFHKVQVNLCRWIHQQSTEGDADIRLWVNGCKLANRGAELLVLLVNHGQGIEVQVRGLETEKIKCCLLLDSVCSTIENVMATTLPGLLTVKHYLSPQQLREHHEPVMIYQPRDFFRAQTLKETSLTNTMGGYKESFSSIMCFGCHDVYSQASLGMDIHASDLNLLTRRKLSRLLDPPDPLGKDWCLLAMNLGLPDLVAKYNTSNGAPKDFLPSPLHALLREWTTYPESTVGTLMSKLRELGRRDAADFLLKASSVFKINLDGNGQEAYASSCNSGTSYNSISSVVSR
The target in assay [3] is T2, DCAMKL2(h) (Homo sapiens, UniProt Q8N568).
T2 sequence (Q8N568 1-766): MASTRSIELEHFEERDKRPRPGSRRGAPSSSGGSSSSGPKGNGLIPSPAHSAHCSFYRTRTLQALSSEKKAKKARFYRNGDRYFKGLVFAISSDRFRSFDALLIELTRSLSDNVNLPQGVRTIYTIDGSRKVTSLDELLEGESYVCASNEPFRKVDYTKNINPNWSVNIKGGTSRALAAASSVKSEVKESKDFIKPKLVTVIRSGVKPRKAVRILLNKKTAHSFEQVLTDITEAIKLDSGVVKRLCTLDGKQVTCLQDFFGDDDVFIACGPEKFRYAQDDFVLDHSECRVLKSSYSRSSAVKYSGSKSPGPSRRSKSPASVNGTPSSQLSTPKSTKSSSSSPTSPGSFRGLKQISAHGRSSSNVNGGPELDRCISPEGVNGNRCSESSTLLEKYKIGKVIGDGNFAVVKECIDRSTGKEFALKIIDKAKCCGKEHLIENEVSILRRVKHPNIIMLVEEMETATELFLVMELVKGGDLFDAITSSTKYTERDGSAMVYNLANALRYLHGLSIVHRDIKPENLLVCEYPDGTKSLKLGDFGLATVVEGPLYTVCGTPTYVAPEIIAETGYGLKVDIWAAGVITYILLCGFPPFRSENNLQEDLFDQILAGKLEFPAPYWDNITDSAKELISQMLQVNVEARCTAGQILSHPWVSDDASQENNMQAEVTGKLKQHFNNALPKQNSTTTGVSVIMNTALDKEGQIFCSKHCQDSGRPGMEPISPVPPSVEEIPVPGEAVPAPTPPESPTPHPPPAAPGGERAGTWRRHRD

The target in assay [4] is T3, DYRK2(h) (Homo sapiens, UniProt Q92630).
T3 sequence (Q92630 1-601): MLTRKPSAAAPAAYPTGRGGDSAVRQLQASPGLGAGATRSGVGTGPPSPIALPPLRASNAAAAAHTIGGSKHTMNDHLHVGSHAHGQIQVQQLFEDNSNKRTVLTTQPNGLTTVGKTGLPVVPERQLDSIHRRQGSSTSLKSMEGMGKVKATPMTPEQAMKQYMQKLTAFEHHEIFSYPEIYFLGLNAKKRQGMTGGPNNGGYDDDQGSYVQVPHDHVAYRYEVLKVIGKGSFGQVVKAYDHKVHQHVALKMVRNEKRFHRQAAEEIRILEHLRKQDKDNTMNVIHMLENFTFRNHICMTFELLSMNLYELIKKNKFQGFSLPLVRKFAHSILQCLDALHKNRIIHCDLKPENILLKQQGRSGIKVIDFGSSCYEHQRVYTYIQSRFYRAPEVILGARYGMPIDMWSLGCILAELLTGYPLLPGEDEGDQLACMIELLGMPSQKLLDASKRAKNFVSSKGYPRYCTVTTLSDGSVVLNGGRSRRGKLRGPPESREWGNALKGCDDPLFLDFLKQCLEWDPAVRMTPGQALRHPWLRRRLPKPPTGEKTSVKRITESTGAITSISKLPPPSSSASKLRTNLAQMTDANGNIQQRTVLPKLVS

In assay [5] the target is EGFR(h) (Homo sapiens, UniProt P00533).
The target in assay [6] is Fgr(h) (Homo sapiens, UniProt P09769).
Assay [7] has as its target Yes(h) (Homo sapiens, UniProt P07947).

Chain of Yes(h) (P07947 whole entry): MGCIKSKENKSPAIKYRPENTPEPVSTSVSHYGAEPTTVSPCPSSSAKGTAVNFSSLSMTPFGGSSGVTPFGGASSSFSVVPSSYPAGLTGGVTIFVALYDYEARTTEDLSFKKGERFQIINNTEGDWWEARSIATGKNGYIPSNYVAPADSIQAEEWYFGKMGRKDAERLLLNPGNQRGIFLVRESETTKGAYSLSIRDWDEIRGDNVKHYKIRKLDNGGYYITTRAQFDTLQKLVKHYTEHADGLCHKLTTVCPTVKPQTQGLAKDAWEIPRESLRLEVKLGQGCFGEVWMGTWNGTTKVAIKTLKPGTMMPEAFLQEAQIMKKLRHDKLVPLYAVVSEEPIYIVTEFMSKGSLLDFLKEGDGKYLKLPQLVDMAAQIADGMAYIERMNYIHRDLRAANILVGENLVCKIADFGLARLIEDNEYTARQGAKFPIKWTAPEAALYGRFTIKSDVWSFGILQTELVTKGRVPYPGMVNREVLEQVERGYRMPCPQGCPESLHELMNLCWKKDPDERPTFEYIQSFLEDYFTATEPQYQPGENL

Regarding FAKLAARLYRKALARQLGVAA [MMI-0300], the “% activity” value came to 80% in assay [1]; 46% in assay [2]; 81% in assay [3]; 155% in assay [4]; 21% in assay [5]; 60% in assay [6]. Also, in assay [7], the “% activity” value is 67%.

For the sequence YARAAARQARAKALNRQLGVA [MMI-0200], the “% activity” value is given as 101% in assay [1]; 131% in assay [3]; 142% in assay [4]; 83% in assay [5]; 71% in assay [6]; 93% in assay [7].

Take KAFAKLAARLYRKALARQLGVAA [MMI-0400]: the “% activity” value in assay [1] turned out to be 69%; in assay [2], 36%; in assay [3], 70%; in assay [4], 195%; in assay [5], 16%; in assay [6], 47%. Further, the “% activity” value in assay [7] is given as 14%.

On to HRRIKAWLKKIKALARQLGVAA [MMI-0500], for which the “% activity” value in assay [1] is −4%; in assay [2], 0%; in assay [3], 56%; in assay [4], 127%; in assay [5], −1%.
